Reference: publication PMC10679996

Biological target: HSC70 (UniProt P11142)
Test: anti-FLAG co-IP, Western blot
Conditions: reference: wild type; sites T290

Substance: PD-L1 (from UniProt Q9NZQ7) T290A
- binding against the reference: weaker
